This note sets out measurements from PMC3713010, “Sox2 Transcriptionally Regulates Pqbp1, an Intellectual Disability-Microcephaly Causative Gene, in Neural Stem Progenitor Cells”.

B1: 94 (dsDNA)
DNA 1: GGGGGATCTGTAAAGGAAATTACTTTGTAGGAAATTTGATGGAACTGCCCCC
DNA 2: GGGGGCAGTTCCATCAAATTTCCTACAAAGTAATTTCCTTTACAGATCCCCC
B2: 95 (dsDNA)
DNA 1: GGGGGGGTTTTCTTTTGTACACTTAATATCCGCTGGGGCCCCC
DNA 2: GGGGGCCCCAGCGGATATTAAGTGTACAAAAGAAAACCCCCCC
B3: 98 (dsDNA)
DNA 1: GGGGGTTATGAATACAATTCATTATAACCATGGATCCCCC
DNA 2: GGGGGATCCATGGTTATAATGAATTGTATTCATAACCCCC
B4: 99 (dsDNA)
DNA 1: GGGGGATATAACAAGATAATCATTGTTTTGAATATTCCAAGGATTTCCCCC
DNA 2: GGGGGAAATCCTTGGAATATTCAAAACAATGATTATCTTGTTATATCCCCC
B5: 96 (dsDNA)
DNA 1: GGGGGACATAGACACAAATAGCAGACAATGACCTTGACCCCC
DNA 2: GGGGGTCAAGGTCATTGTCTGCTATTTGTGTCTATGTCCCCC
B6: 97 (dsDNA)
DNA 1: GGGGGTAGATGCTACAAAAGATACTGATTAAAACCCAAATGCCCCC
DNA 2: GGGGGCATTTGGGTTTTAATCAGTATCTTTTGTAGCATCTACCCCC

Sequence of Pax6 DNA-binding domain (BD-Pax6) (P63015 190-289): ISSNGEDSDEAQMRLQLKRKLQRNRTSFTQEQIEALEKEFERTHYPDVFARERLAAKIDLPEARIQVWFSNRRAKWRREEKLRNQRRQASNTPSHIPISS

In one data set the target is Pax6 DNA-binding domain (BD-Pax6) (Mus musculus (B6), UniProt P63015 190-289). Nature of the data set: EMSA; 10% glycerol, 20 mM HEPES pH 7.8, 45 mM KCl, 10 mM NaCl, 1 mM EDTA, 1 mM DTT, 0.2 ug/uL BSA, 0.1% NP-40, 50 ng poly-dIdC; 20 ng each GST protein; room temperature 30 min (heterodimers 4 C); 6% PAGE 0.25x TBE. The following applies: protein: recombinant; tags: GST (N-terminal, pGEX-6P-1); label: 32P-dCTP fill-in of the 5' (dG)5 overhangs of both strands (Methods; control probes are given with GGG). In outline:
(§1)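 Transcription factor DNA-binding domains carrying a GST tag were expressed in E. coli BL21, purified on glutathione-sepharose and tested against annealed candidate cis-element oligonucleotides labelled with 32P-dCTP. Each reaction held 20 ng protein, 40,000–50,000 cpm probe and 50 ng poly-dIdC in HEPES/KCl glycerol buffer with BSA and detergent, incubated 30 min at room temperature, then run on 6% polyacrylamide in 0.25×TBE at 4°C. DNA binding was scored as the radioactivity of the band in the expected shift region, read on a phosphor imager.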
With B1, the binding result was “binds”.

As to B2, the binding result is listed as “binds”.

B3: the binding result was “no binding”.

B4: the binding result was “binds”.

Consider B5, for which the binding result is recorded as “no binding”.

On to B6, for which the binding result is on record as “binds”.

A further data set concerns the target T1, Oct6 DNA-binding domain (BD-Oct6) (Mus musculus (B6), UniProt P21952 317-416).
T1 sequence: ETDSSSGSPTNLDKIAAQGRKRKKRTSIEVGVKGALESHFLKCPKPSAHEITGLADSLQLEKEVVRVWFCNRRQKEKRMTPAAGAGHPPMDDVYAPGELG
Described as above. The following applies: protein: recombinant; tags: GST (N-terminal, pGEX-6P-1); label: 32P-dCTP fill-in of the 5' (dG)5 overhangs of both strands (Methods; control probes are given with GGG). In outline: as §1
Turning to B1, the binding result is “binds”.

Regarding B2, the binding result is on record as “binds”.

In the case of B3, the binding result is “binds”.

As to B4, the binding result was “binds”.

B5: the binding result is reported as “no binding”.

As for B6, the binding result is listed as “binds”.

Another data set deals with T2, Brn2 DNA-binding domain (BD-Brn2) (Mus musculus (B6), UniProt P31360 336-435).
T2 sequence: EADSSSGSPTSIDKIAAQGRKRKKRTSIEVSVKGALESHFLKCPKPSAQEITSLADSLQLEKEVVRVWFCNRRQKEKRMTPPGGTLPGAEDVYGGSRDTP
The data set is described as above. The following applies: protein: recombinant; tags: GST (N-terminal, pGEX-6P-1); label: 32P-dCTP fill-in of the 5' (dG)5 overhangs of both strands (Methods; control probes are given with GGG). Put shortly:
as §1
B1: the binding result is reported as “binds”.

Turning to B2, the binding result is on record as “no binding”.

Consider B3, for which the binding result is listed as “binds”.

Take B4: the binding result is “binds”.

As for B5, the binding result was “no binding”.

B6: the binding result is given as “binds”.
